Measurements from publication PMC4118958, “Association of BLM and BRCA1 during Telomere Maintenance in ALT Cells” (PLoS ONE, 2014).

Target: BLM helicase, mutated in Bloom's syndrome (human (endogenous in U2OS), UniProt P54132 1-1417)
Test: cell-based or functional assay

BLM helicase, mutated in Bloom's syndrome, sequence (P54132 whole entry, change not shown): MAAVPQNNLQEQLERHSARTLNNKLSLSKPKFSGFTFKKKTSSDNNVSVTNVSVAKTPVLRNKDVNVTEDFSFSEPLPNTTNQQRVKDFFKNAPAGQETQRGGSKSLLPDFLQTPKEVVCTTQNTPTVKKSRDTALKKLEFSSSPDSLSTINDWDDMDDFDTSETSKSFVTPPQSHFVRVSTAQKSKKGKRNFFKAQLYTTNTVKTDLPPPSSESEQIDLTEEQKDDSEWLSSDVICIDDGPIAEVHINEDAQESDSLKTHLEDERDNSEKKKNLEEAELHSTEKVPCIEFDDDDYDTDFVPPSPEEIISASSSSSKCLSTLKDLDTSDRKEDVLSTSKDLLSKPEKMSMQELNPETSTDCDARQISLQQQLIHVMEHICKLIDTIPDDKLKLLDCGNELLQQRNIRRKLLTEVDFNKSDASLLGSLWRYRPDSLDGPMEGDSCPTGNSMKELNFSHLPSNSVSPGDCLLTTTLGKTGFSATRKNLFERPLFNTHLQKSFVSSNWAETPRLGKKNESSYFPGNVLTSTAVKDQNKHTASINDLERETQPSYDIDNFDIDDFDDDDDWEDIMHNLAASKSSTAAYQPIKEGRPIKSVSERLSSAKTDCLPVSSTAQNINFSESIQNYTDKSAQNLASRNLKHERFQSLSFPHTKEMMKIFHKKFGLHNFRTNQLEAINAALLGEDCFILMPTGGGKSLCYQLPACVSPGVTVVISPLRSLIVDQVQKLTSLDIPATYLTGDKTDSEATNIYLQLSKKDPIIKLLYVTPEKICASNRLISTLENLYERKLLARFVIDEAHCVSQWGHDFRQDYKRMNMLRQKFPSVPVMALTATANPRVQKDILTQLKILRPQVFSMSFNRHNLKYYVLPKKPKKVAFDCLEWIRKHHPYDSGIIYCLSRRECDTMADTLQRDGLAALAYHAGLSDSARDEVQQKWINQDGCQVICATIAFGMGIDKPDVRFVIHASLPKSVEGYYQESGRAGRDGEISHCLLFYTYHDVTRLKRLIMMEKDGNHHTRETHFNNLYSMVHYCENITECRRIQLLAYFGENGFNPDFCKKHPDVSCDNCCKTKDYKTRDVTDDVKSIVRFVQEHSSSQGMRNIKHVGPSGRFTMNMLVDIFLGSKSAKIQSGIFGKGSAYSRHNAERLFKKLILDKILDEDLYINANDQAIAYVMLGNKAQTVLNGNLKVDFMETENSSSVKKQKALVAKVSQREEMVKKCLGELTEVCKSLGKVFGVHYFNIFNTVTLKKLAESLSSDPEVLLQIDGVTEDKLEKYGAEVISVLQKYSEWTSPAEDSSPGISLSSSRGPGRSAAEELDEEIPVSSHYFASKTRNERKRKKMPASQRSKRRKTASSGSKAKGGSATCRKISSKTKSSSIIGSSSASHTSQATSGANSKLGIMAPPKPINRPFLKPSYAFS

B1: BRCA1 tumor suppressor (natural protein, human (endogenous in U2OS), UniProt P38398 1-1863, looked up)
chain: MDLSALRVEEVQNVINAMQKILECPICLELIKEPVSTKCDHIFCKFCMLKLLNQKKGPSQCPLCKNDITKRSLQESTRFSQLVEELLKIICAFQLDTGLEYANSYNFAKKENNSPEHLKDEVSIIQSMGYRNRAKRLLQSEPENPSLQETSLSVQLSNLGTVRTLRTKQRIQPQKTSVYIELGSDSSEDTVNKATYCSVGDQELLQITPQGTRDEISLDSAKKAACEFSETDVTNTEHHQPSNNDLNTTEKRAAERHPEKYQGSSVSNLHVEPCGTNTHASSLQHENSSLLLTKDRMNVEKAEFCNKSKQPGLARSQHNRWAGSKETCNDRRTPSTEKKVDLNADPLCERKEWNKQKLPCSENPRDTEDVPWITLNSSIQKVNEWFSRSDELLGSDDSHDGESESNAKVADVLDVLNEVDEYSGSSEKIDLLASDPHEALICKSERVHSKSVESNIEDKIFGKTYRKKASLPNLSHVTENLIIGAFVTEPQIIQERPLTNKLKRKRRPTSGLHPEDFIKKADLAVQKTPEMINQGTNQTEQNGQVMNITNSGHENKTKGDSIQNEKNPNPIESLEKESAFKTKAEPISSSISNMELELNIHNSKAPKKNRLRRKSSTRHIHALELVVSRNLSPPNCTELQIDSCSSSEEIKKKKYNQMPVRHSRNLQLMEGKEPATGAKKSNKPNEQTSKRHDSDTFPELKLTNAPGSFTKCSNTSELKEFVNPSLPREEKEEKLETVKVSNNAEDPKDLMLSGERVLQTERSVESSSISLVPGTDYGTQESISLLEVSTLGKAKTEPNKCVSQCAAFENPKGLIHGCSKDNRNDTEGFKYPLGHEVNHSRETSIEMEESELDAQYLQNTFKVSKRQSFAPFSNPGNAEEECATFSAHSGSLKKQSPKVTFECEQKEENQGKNESNIKPVQTVNITAGFPVVGQKDKPVDNAKCSIKGGSRFCLSSQFRGNETGLITPNKHGLLQNPYRIPPLFPIKSFVKTKCKKNLLEENFEEHSMSPEREMGNENIPSTVSTISRNNIRENVFKEASSSNINEVGSSTNEVGSSINEIGSSDENIQAELGRNRGPKLNAMLRLGVLQPEVYKQSLPGSNCKHPEIKKQEYEEVVQTVNTDFSPYLISDNLEQPMGSSHASQVCSETPDDLLDDGEIKEDTSFAENDIKESSAVFSKSVQKGELSRSPSPFTHTHLAQGYRRGAKKLESSEENLSSEDEELPCFQHLLFGKVNNIPSQSTRHSTVATECLSKNTEENLLSLKNSLNDCSNQVILAKASQEHHLSEETKCSASLFSSQCSELEDLTANTNTQDPFLIGSSKQMRHQSESQGVGLSDKELVSDDEERGTGLEENNQEEQSMDSNLGEAASGCESETSVSEDCSGLSSQSDILTTQQRDTMQHNLIKLQQEMAELEAVLEQHGSQPSNSYPSIISDSSALEDLRNPEQSTSEKAVLTSQKSSEYPISQNPEGLSADKFEVSADSSTSKNKEPGVERSSPSKCPSLDDRWYMHSCSGSLQNRNYPSQEELIKVVDVEEQQLEESGPHDLTETSYLPRQDLEGTPYLESGISLFSDDPESDPSEDRAPESARVGNIPSSTSALKVPQLKVAESAQSPAAAHTTDTAGYNAMEESVSREKPELTASTERVNKRMSMVVSGLTPEEFMLVYKFARKHHITLTNLITEETTHVVMKTDAEFVCERTLKYFLGIAGGKWVVSYFWVTQSIKERKMLNEHDFEVRGDVVNGRNHQGPKRARESQDRKIFRGLEICCYGPFTNMPTDQLEWMVQLCGASVVKELSSFTLGTGVHPIVVVQPDAWTEDNGFHAIGQMCEAPVVTREWVLDSVALYQCQELDTYLIPQIPHSHY
fold stimulation of BLM helicase activity by 3 nM full-length BRCA1 on a non-telomeric fork substrate: ~1.9 fold | fold stimulation of BLM helicase activity by 3 nM full-length BRCA1 on the fork substrate with two telomeric repeats: ~3.6 fold | initial unwinding rate of BLM (1.2 nM) on the telomeric fork in the presence of 3 nM BRCA1, fold increase: 1.7 fold
